pKd: −log10 of the molar value.
Tests used:
[1] = biological target: GDP microtubules (polymerised from porcine brain tubulin with GTP) (porcine) (UniProt P02550); assay: in vitro MT-binding assay by epifluorescence microscopy
[2] = biological target: GMPCPP microtubules (polymerised from porcine brain tubulin with GMPCPP) (porcine) (UniProt P02550); assay: as above

Work on “KIF5C monomeric motor domain (K351) (domain or fragment)” yielded a pKd [1] of 6.03 and a pKd [2] of 6.60.
